Reference: article PMC13035853, “Mechanism of beta-arrestin 1 mediated Src activation via Src SH3 domain revealed by cryo-electron microscopy” (Nature Communications, 2026)

Molecular target: SH3 domain of Src (residues 83-141), wild type, with C-terminal FLAG-tag (chicken, UniProt P00523 83-141)
Assay: bimane fluorescence; as a10, for the pair of SH3 (250 nM) and βarr1 V70C-mBr (20 nM), both purified; read-out is the loss of the V2R-induced rise of bimane fluorescence
Settings: both partners purified

B1: βarr1-MC-393 V70C labeled with monobromobimane (natural protein, rat, UniProt P29066 1-393, looked up)
chain: MGDKGTRVFKKASPNGKLTVYLGKRDFVDHIDLVDPVDGVVLVDPEYLKERRVYVTLTAAFRYGREDLDCLGLTFRKDLFVANVQSFPPAPEDKKPLTRLQERLIKKLGEHAYPFTFEIPPNLPSSVTLQPGPEDTGKAIGVDYEVKAFVAENLEEKIHKRNSVRLVIRKVQYAPERPGPQPTAETTRQFLMSDKPLHLEASLDKEIYYHGEPISVNVHVTNNTNKTVKKIKISVRQYADIVLFNTAQYKVPVAMEEADDTVAPSSTFSKVYTLTPFLANNREKRGLALDGKLKHEDTNLASSTLLREGANREILGIIVSYKVKVKLVVSRGGLLGDLASSDVAVELPFTLMHPKPKEEPPHREVPESETPVDTNLIELDTNDDDIVFEDFAR
modifications: bimane (mBr) on C70 of the finger loop
notes: beta-arrestin 1, rat, minimal cysteine and truncated variant (MC-393) with V70C; also called βarr1 V70C-mBr; βarr1 finger loop bimane; source: E. coli BL21 derivative, purified; labeled with monobromobimane, free label removed by SEC
  binding result: binds
